Experimental data reported in patent CN115433278A.

T1: CS1 FC融合标签蛋白 (CS1 Fc fusion tag protein, expressed in 293F cells) (UniProt Q9NQ25)
T1 sequence (looked up): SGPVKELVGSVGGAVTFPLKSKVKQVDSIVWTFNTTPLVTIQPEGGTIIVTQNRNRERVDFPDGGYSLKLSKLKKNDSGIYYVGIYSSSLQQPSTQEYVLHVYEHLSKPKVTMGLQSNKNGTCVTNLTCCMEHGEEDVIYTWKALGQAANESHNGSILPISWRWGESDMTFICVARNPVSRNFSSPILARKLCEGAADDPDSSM


How the values were obtained:
[1] = molecular target: T1, CS1 FC融合标签蛋白 (CS1 Fc fusion tag protein, expressed in 293F cells); experiment: ELISA, CS1 protein coated at 1 ug/ml, purified antibody at dilution 5K
[2] = molecular target: T1, CS1 FC融合标签蛋白 (CS1 Fc fusion tag protein, expressed in 293F cells); experiment: ELISA, CS1 protein coated at 1 ug/ml, purified antibody at dilution 25K
[3] = molecular target: T1, CS1 FC融合标签蛋白 (CS1 Fc fusion tag protein, expressed in 293F cells); experiment: ELISA, CS1 protein coated at 1 ug/ml, purified antibody at dilution 125K
[4] = molecular target: T1, CS1 FC融合标签蛋白 (CS1 Fc fusion tag protein, expressed in 293F cells); experiment: ELISA, CS1 protein coated at 1 ug/ml, purified antibody at dilution 625K
[5] = molecular target: T1, CS1 FC融合标签蛋白 (CS1 Fc fusion tag protein, expressed in 293F cells); experiment: ELISA, CS1 protein coated at 1 ug/ml, purified antibody at dilution 3125k
[6] = molecular target: T1, CS1 FC融合标签蛋白 (CS1 Fc fusion tag protein, expressed in 293F cells); experiment: ELISA, CS1 protein coated at 1 ug/ml, purified antibody at dilution 15625k
[7] = molecular target: T1, CS1 FC融合标签蛋白 (CS1 Fc fusion tag protein, expressed in 293F cells); experiment: indirect ELISA, CS1 protein coated at 1 ug/ml, B cell culture supernatant, goat anti-rabbit IgG-HRP
[8] = molecular target: T1, CS1 FC融合标签蛋白 (CS1 Fc fusion tag protein, expressed in 293F cells); experiment: ELISA, CS1 protein coated at 1 ug/ml, purified antibody at dilution 1K

ELISA OD [1]	ELISA OD [2]	ELISA OD [3]	ELISA OD [4]	ELISA OD [5]	ELISA OD [6]	OD450值 [7] [OD450]	ELISA OD [8]	Binder
3.95	2.91	0.98	0.276	0.161	0.108	2.03		命名为2B3的兔重组单克隆抗体 (rabbit recombinant monoclonal antibody 2B3) (antibody, V domains shown) VH: QSVEESGGRLVTPGTPLTLTCTVSGFSLSAYAMGWFRQAPGKGLEYIGIISDSASTFYATWAKGRFTISRTSSTMVDLKMTSPTTEDTATYFCARAYYVVDNDSPFNMWGPGTVVTVS VL: VMTQTPSSVSAAVGGTVTINCQASENIYSSLAWYQQKPGQPPKLLIYAASKLESGVPSRFKGSRSETDFTLTISDLECDDAATYYCQSYYDTGRASFAFGGGTEVVVK
	3.45	2.02	0.522	0.209	0.124	2.13		命名为1D12的兔重组单克隆抗体 (rabbit recombinant monoclonal antibody 1D12) (antibody, V domains shown) VH: QSVEESGGRLVTPGTPLTLTCTVSGFSLSSYGMIWVRQAPGKGLEWIGSINTDGSTYYATWAKGRFTISRTSTTVDLKITSPTTEDTATYFCARGYPGYITDSYYYFNIWGPGTLVTVS VL: DVVLTQTPASVEAAVRGTVTIKCQASQSISSYLSWYQQKPGQPPKLLIYRASTLESGVPSRFKGSGSGTEFTLTITDLECADAATYYCQCTYGTFHSSGYGFGGGTGVVVK
3.83	2.39	1.18	0.32	0.153	0.11	1.52	3.95	命名为1H2的兔重组单克隆抗体 (rabbit recombinant monoclonal antibody 1H2) (antibody, V domains shown) VH: QSVEESRGGLIKPTDTLTLTCTVSGFSLSNYGVSWVRQAPGNGLEYIGFIGTIGATLYANWAKSRSTITRNTNLNTVTLKMTSLTAADTATYFCARGIYGDIYVYAFDIWGPGTLVTVSS VL: AAVLTQTPSPVSAAVGGTVTISCQASQSVRDNGDLAWYQQKPGQPPKLLIYDVSALASGVPSRFKGRGSGTQFTLTISDLECDDAATYSCAGGYIAGSDRWVFGGGTEVVVK
